Reference: patent US20250186597A1, “TARGETED IMMUNE ACTIVATION WITH IL-18 IMMUNOCYTOKINES” (BRIGHT PEAK THERAPEUTICS AG, priority 2023, published 2025)

Experiments:
Experiment in all cases: cell-based or functional assay
[1] = molecular target: IL-18 polypeptide C161 (K8R, V11I, C38A, C76A, Q103E, C127A) (human) (UniProt Q14116)
[2] = molecular target: IL-18 polypeptide of SEQ ID NO: 34 (E06K, K53A, S55A) (human) (UniProt Q14116)
[3] = molecular target: IL-18 polypeptide of SEQ ID NO: 39 (E06K, K53A) (human) (UniProt Q14116)
IL-18 polypeptide of SEQ ID NO: 39 (E06K, K53A) (human), sequence (Q14116 37-193 E42K/K89A): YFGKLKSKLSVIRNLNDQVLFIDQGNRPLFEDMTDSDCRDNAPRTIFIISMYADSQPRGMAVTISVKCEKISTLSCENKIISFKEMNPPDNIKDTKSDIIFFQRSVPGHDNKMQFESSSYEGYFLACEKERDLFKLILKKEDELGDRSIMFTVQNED

[4] = molecular target: IL-18 polypeptide of SEQ ID NO: 55 (K53A, T63A, C38S, C68S, C76S, C127S, K70C) (human) (UniProt Q14116)
IL-18 polypeptide of SEQ ID NO: 55 (K53A, T63A, C38S, C68S, C76S, C127S, K70C) (human), sequence (Q14116 37-193 C74S/K89A/T99A/C104S/K106C/C112S/C163S): as the sequence (Q14116 37-193 E42K/K89A) above, with K6E, C38S, T63A, C68S, K70C, C76S, C127S counted along it

[5] = molecular target: IL-18 polypeptide of SEQ ID NO: 52 (E06K, T63A) (human) (UniProt Q14116)
IL-18 polypeptide of SEQ ID NO: 52 (E06K, T63A) (human), sequence (Q14116 37-193 E42K/T99A): as the sequence (Q14116 37-193 E42K/K89A) above, with A53K, T63A counted along it

[6] = molecular target: IL-18 polypeptide of SEQ ID NO: 40 (E06K, S55A) (human) (UniProt Q14116)
IL-18 polypeptide of SEQ ID NO: 40 (E06K, S55A) (human), sequence (Q14116 37-193 E42K/S91A): as the sequence (Q14116 37-193 E42K/K89A) above, with A53K, S55A counted along it

[7] = molecular target: IL-18 polypeptide C145 (V11I, C38A, K53A, S55A, C76A, C127A) (human) (UniProt Q14116)
IL-18 polypeptide C145 (V11I, C38A, K53A, S55A, C76A, C127A) (human), sequence (Q14116 37-193 V47I/C74A/K89A/S91A/C112A/C163A): as the sequence (Q14116 37-193 E42K/K89A) above, with K6E, V11I, C38A, S55A, C76A, C127A counted along it

[8] = molecular target: IL-18 polypeptide of SEQ ID NO: 54 (E06K, K53A, C38S, C68S, C76S, C127S, K70C) (human) (UniProt Q14116)
IL-18 polypeptide of SEQ ID NO: 54 (E06K, K53A, C38S, C68S, C76S, C127S, K70C) (human), sequence (Q14116 37-193 E42K/C74S/K89A/C104S/K106C/C112S/C163S): as the sequence (Q14116 37-193 E42K/K89A) above, with C38S, C68S, K70C, C76S, C127S counted along it

[9] = molecular target: IL-18 polypeptide of SEQ ID NO: 5 (E6K, V11I, C38A, K53A, T63A, C68A, C76A, M86C, C127A) (human) (UniProt Q14116)
[10] = molecular target: IL-18 polypeptide of SEQ ID NO: 35 (Y01G, F02A, E06K, M51G, K53A, D54A, S55A, T63A) (human) (UniProt Q14116)
IL-18 polypeptide of SEQ ID NO: 35 (Y01G, F02A, E06K, M51G, K53A, D54A, S55A, T63A) (human), sequence (Q14116 37-193 Y37G/F38A/E42K/M87G/K89A/D90A/S91A/T99A): as the sequence (Q14116 37-193 E42K/K89A) above, with Y1G, F2A, M51G, D54A, S55A, T63A counted along it

[11] = molecular target: IL-18 polypeptide of SEQ ID NO: 9 (E6K, C38A, K53A, C68A, D98C) (human) (UniProt Q14116)
IL-18 polypeptide of SEQ ID NO: 9 (E6K, C38A, K53A, C68A, D98C) (human), sequence (Q14116 other isoform, or with tags, fused parts or gaps C38A K53A C68A D98C C38A K53A C68A D98C): as the sequence (Q14116 37-193 E42K/K89A) above, with C38A, C68A, D98C counted along it

[12] = molecular target: IL-18 polypeptide of SEQ ID NO: 31 (C38A, C76A, C127A) (human) (UniProt Q14116)
IL-18 polypeptide of SEQ ID NO: 31 (C38A, C76A, C127A) (human), sequence (Q14116 37-193 C74A/C112A/C163A): as the sequence (Q14116 37-193 E42K/K89A) above, with K6E, C38A, A53K, C76A, C127A counted along it

[13] = molecular target: IL-18 polypeptide of SEQ ID NO: 60 (E6K, C38Q, K53A) (human) (UniProt Q14116)
IL-18 polypeptide of SEQ ID NO: 60 (E6K, C38Q, K53A) (human), sequence (Q14116 other isoform, or with tags, fused parts or gaps C38Q K53A C38Q K53A): as the sequence (Q14116 37-193 E42K/K89A) above, with C38Q counted along it

[14] = molecular target: IL-18 polypeptide C146 (SEQ ID NO: 68; V11I, C38A, M51G, K53A, C76A, C127A) (human) (UniProt Q14116)
IL-18 polypeptide C146 (SEQ ID NO: 68; V11I, C38A, M51G, K53A, C76A, C127A) (human), sequence (Q14116 37-193 V47I/C74A/M87G/K89A/C112A/C163A): as the sequence (Q14116 37-193 E42K/K89A) above, with K6E, V11I, C38A, M51G, C76A, C127A counted along it

[15] = molecular target: IL-18 polypeptide of SEQ ID NO: 38 (E06K) (human) (UniProt Q14116)
[16] = molecular target: IL-18 polypeptide of SEQ ID NO: 42 (E06K, K53A, S55A, T63A) (human) (UniProt Q14116)
IL-18 polypeptide of SEQ ID NO: 42 (E06K, K53A, S55A, T63A) (human), sequence (Q14116 37-193 E42K/K89A/S91A/T99A): as the sequence (Q14116 37-193 E42K/K89A) above, with S55A, T63A counted along it

[17] = molecular target: IL-18 polypeptide of SEQ ID NO: 53 (K53A, T63A) (human) (UniProt Q14116)
[18] = molecular target: IL-18 polypeptide of SEQ ID NO: 43 (E06K, K53A, S55A, Y01G) (human) (UniProt Q14116)
IL-18 polypeptide of SEQ ID NO: 43 (E06K, K53A, S55A, Y01G) (human), sequence (Q14116 37-193 Y37G/E42K/K89A/S91A): as the sequence (Q14116 37-193 E42K/K89A) above, with Y1G, S55A counted along it

[19] = molecular target: IL-18 polypeptide of SEQ ID NO: 57 (E6K, C38S, K53A) (human) (UniProt Q14116)
IL-18 polypeptide of SEQ ID NO: 57 (E6K, C38S, K53A) (human), sequence (Q14116 other isoform, or with tags, fused parts or gaps C38S K53A C38S K53A): as the sequence (Q14116 37-193 E42K/K89A) above, with C38S counted along it

[20] = molecular target: IL-18 polypeptide C153 (V11I, D37A, C38A, K53A, C76A, C127A) (human) (UniProt Q14116)
[21] = molecular target: IL-18 polypeptide C151 (V11I, D35A, C38A, K53A, C76A, C127A) (human) (UniProt Q14116)
IL-18 polypeptide C151 (V11I, D35A, C38A, K53A, C76A, C127A) (human), sequence (Q14116 37-193 V47I/D71A/C74A/K89A/C112A/C163A): as the sequence (Q14116 37-193 E42K/K89A) above, with K6E, V11I, D35A, C38A, C76A, C127A counted along it

[22] = molecular target: IL-18 polypeptide of SEQ ID NO: 50 (E06K, K53A, T63A) (human) (UniProt Q14116)
IL-18 polypeptide of SEQ ID NO: 50 (E06K, K53A, T63A) (human), sequence (Q14116 37-193 E42K/K89A/T99A): as the sequence (Q14116 37-193 E42K/K89A) above, with T63A counted along it

[23] = molecular target: IL-18 polypeptide of SEQ ID NO: 36 (K53A) (human) (UniProt Q14116)
IL-18 polypeptide of SEQ ID NO: 36 (K53A) (human), sequence (Q14116 37-193 K89A): as the sequence (Q14116 37-193 E42K/K89A) above, with K6E counted along it

[24] = molecular target: IL-18 polypeptide C143 (V11I, C38A, K53A, C76A, C127A) (human) (UniProt Q14116)
IL-18 polypeptide C143 (V11I, C38A, K53A, C76A, C127A) (human), sequence (Q14116 37-193 V47I/C74A/K89A/C112A/C163A): as the sequence (Q14116 37-193 E42K/K89A) above, with K6E, V11I, C38A, C76A, C127A counted along it

[25] = molecular target: IL-18 polypeptide C159 (V11I, C38A, K53A, C76A, H109A, C127A) (human) (UniProt Q14116)
IL-18 polypeptide C159 (V11I, C38A, K53A, C76A, H109A, C127A) (human), sequence (Q14116 37-193 V47I/C74A/K89A/C112A/H145A/C163A): as the sequence (Q14116 37-193 E42K/K89A) above, with K6E, V11I, C38A, C76A, H109A, C127A counted along it

[26] = molecular target: IL-18 polypeptide C157 (V11I, C38A, K53A, C76A, C127A, D132A) (human) (UniProt Q14116)
IL-18 polypeptide C157 (V11I, C38A, K53A, C76A, C127A, D132A) (human), sequence (Q14116 37-193 V47I/C74A/K89A/C112A/C163A/D168A): as the sequence (Q14116 37-193 E42K/K89A) above, with K6E, V11I, C38A, C76A, C127A, D132A counted along it

[27] = molecular target: IL-18 polypeptide of SEQ ID NO: 47 (C38S, C68S, C76S, C127S) (human) (UniProt Q14116)
IL-18 polypeptide of SEQ ID NO: 47 (C38S, C68S, C76S, C127S) (human), sequence (Q14116 37-193 C74S/C104S/C112S/C163S): as the sequence (Q14116 37-193 E42K/K89A) above, with K6E, C38S, A53K, C68S, C76S, C127S counted along it

[28] = molecular target: IL-18 polypeptide of SEQ ID NO: 4 (E6K, C38A, K53A, C68A, M86C) (human) (UniProt Q14116)
IL-18 polypeptide of SEQ ID NO: 4 (E6K, C38A, K53A, C68A, M86C) (human), sequence (Q14116 other isoform, or with tags, fused parts or gaps C38A K53A C68A M86C C38A K53A C68A M86C): as the sequence (Q14116 37-193 E42K/K89A) above, with C38A, C68A, M86C counted along it

[29] = molecular target: IL-18 polypeptide C156 (V11I, C38A, N41A, K53A, C76A, C127A) (human) (UniProt Q14116)
IL-18 polypeptide C156 (V11I, C38A, N41A, K53A, C76A, C127A) (human), sequence (Q14116 37-193 V47I/C74A/N77A/K89A/C112A/C163A): as the sequence (Q14116 37-193 E42K/K89A) above, with K6E, V11I, C38A, N41A, C76A, C127A counted along it

[30] = molecular target: IL-18 polypeptide C149 (V11I, E31A, C38A, K53A, C76A, C127A) (human) (UniProt Q14116)
IL-18 polypeptide C149 (V11I, E31A, C38A, K53A, C76A, C127A) (human), sequence (Q14116 37-193 V47I/E67A/C74A/K89A/C112A/C163A): as the sequence (Q14116 37-193 E42K/K89A) above, with K6E, V11I, E31A, C38A, C76A, C127A counted along it

[31] = molecular target: IL-18 polypeptide of SEQ ID NO: 41 (K53A, S55A) (human) (UniProt Q14116)
IL-18 polypeptide of SEQ ID NO: 41 (K53A, S55A) (human), sequence (Q14116 37-193 K89A/S91A): as the sequence (Q14116 37-193 E42K/K89A) above, with K6E, S55A counted along it

[32] = molecular target: IL-18 polypeptide C166 (V11I, C38A, S55T, C76A, C127A) (human) (UniProt Q14116)
IL-18 polypeptide C166 (V11I, C38A, S55T, C76A, C127A) (human), sequence (Q14116 37-193 V47I/C74A/S91T/C112A/C163A): as the sequence (Q14116 37-193 E42K/K89A) above, with K6E, V11I, C38A, A53K, S55T, C76A, C127A counted along it

[33] = molecular target: IL-18 polypeptide C163 (V11I, C38A, C76A, Q103K, C127A) (human) (UniProt Q14116)
IL-18 polypeptide C163 (V11I, C38A, C76A, Q103K, C127A) (human), sequence (Q14116 37-193 V47I/C74A/C112A/Q139K/C163A): as the sequence (Q14116 37-193 E42K/K89A) above, with K6E, V11I, C38A, A53K, C76A, Q103K, C127A counted along it

IL-18 polypeptide C161 (K8R, V11I, C38A, C76A, Q103E, C127A) (human), sequence (Q14116 other isoform, or with tags, fused parts or gaps V11I C38A C76A Q103E C127A V11I C38A C76A Q103E C127A): as the sequence (Q14116 37-193 E42K/K89A) above, with K6E, K8R, V11I, C38A, A53K, C76A, Q103E, C127A counted along it

Fc fused human IL-18 binding protein isoform a (IL-18BPa; R&D systems, Cat #119-BP) (from UniProt O95998 31-194) (Fc fusion)
IC50 of inhibition by IL-18BP of IFNγ stimulation in NK92 cells [1]: 0.00107 µM
IC50 of inhibition by IL-18BP of IFNγ stimulation in NK92 cells [2]: 0.229 µM
IC50 of inhibition by IL-18BP of IFNγ stimulation in NK92 cells [3]: > 0.703 µM
IC50 of inhibition by IL-18BP of IFNγ stimulation in NK92 cells [4]: > 1 µM
IC50 of inhibition by IL-18BP of IFNγ stimulation in NK92 cells [5]: 0.0471 µM
IC50 of inhibition by IL-18BP of IFNγ stimulation in NK92 cells [6]: 0.015 µM
IC50 of inhibition by IL-18BP of IFNγ stimulation in NK92 cells [7]: 0.0102 µM
IC50 of inhibition by IL-18BP of IFNγ stimulation in NK92 cells [8]: 0.0235 µM
IC50 of inhibition by IL-18BP of IFNγ stimulation in NK92 cells [9]: 0.0624 µM
IC50 of inhibition by IL-18BP of IFNγ stimulation in NK92 cells [10]: > 0.055 µM
IC50 of inhibition by IL-18BP of IFNγ stimulation in NK92 cells [11]: 0.961 µM
IC50 of IL-18BP-mediated inhibition of IFNγ secretion by NK92 cells [12]: 0.000282 µM
IC50 of inhibition by IL-18BP of IFNγ stimulation in NK92 cells [13]: 0.78 µM
IC50 of inhibition by IL-18BP of IFNγ stimulation in NK92 cells [14]: 0.733 µM
IC50 of inhibition by IL-18BP of IFNγ stimulation in NK92 cells [15]: 0.00779 µM
IC50 of inhibition by IL-18BP of IFNγ stimulation in NK92 cells [16]: 1.06 µM
IC50 of inhibition by IL-18BP of IFNγ stimulation in NK92 cells [17]: 0.0182 µM
IC50 of inhibition by IL-18BP of IFNγ stimulation in NK92 cells [18]: 0.0278 µM
IC50 of inhibition by IL-18BP of IFNγ stimulation in NK92 cells [19]: 0.146 µM
IC50 of inhibition by IL-18BP of IFNγ stimulation in NK92 cells [20]: 0.00222 µM
IC50 of inhibition by IL-18BP of IFNγ stimulation in NK92 cells [21]: 0.00362 µM
IC50 of inhibition by IL-18BP of IFNγ stimulation in NK92 cells [22]: > 1 µM
IC50 of inhibition by IL-18BP of IFNγ stimulation in NK92 cells [23]: 0.0273 µM
IC50 of inhibition by IL-18BP of IFNγ stimulation in NK92 cells [24]: 0.00163 µM
IC50 of inhibition by IL-18BP of IFNγ stimulation in NK92 cells [25]: 0.00181 µM
IC50 of inhibition by IL-18BP of IFNγ stimulation in NK92 cells [26]: 0.00608 µM
IC50 of inhibition by IL-18BP of IFNγ stimulation in NK92 cells [27]: 0.000444 µM
IC50 of inhibition by IL-18BP of IFNγ stimulation in NK92 cells [28]: 0.396 µM
IC50 of inhibition by IL-18BP of IFNγ stimulation in NK92 cells [29]: 0.000681 µM
IC50 of inhibition by IL-18BP of IFNγ stimulation in NK92 cells [30]: 0.00117 µM
IC50 of inhibition by IL-18BP of IFNγ stimulation in NK92 cells [31]: 0.0373 µM
IC50 of inhibition by IL-18BP of IFNγ stimulation in NK92 cells [32]: 0.00044 µM
IC50 of inhibition by IL-18BP of IFNγ stimulation in NK92 cells [33]: 0.000823 µM
